Data reported in patent US20260167959A1, “APTAZYME-BASED REGULATABLE GENE EXPRESSION SYSTEMS” (REJUVENATE BIO INC, priority 2022, published 2026).

tested on: Renilla luciferase RNA; experiment: Barcoded aptazyme variant library screen: un-cleaved Renilla luciferase RNA by barcode read counts, HEK293-T cells; type: cell-based; conditions: un-cleaved Renilla luciferase RNA by barcode read counts; with 1 mM theophylline (ON) over without theophylline (OFF); HEK293-T cells; triplicate
Summary of the method: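 Barcode sequencing of cDNA versus DNA, normalized per aptazyme, gave the un-cleaved Renilla luciferase RNA fraction and fold-change with versus without theophylline (triplicates). Library: T3H48 ribozyme with one of seven theophylline aptamer variants inserted at each position, placed in the Renilla 3′ UTR of a dual-luciferase vector.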

| Molecule | Fold change in RNA expression between the ON state and the OFF state |
| --- | --- |
| RA341 (nucleic acid, expressed or natural sequence) DNA: GCGGAATACCAGCATCGTCTTGATGCCCTTGGAAGTCCGCGTCCTGGATTCGCGGAAACGCGTACATCCAGCTGACGAGTCCCAAATAGGACGAAACGCGC | 0.9 |
| RA353 (nucleic acid, expressed or natural sequence) DNA: GCGCGTCCTGGATTCGCGGAAACGCGTACATCCAGCTGACGAGTCCCAAATAGGACGAAACGCCGGAATACCAGCATCGTCTTGATGCCCTTGGAAGTCCGGCGC | 0.9 |
| RA350 (nucleic acid, expressed or natural sequence) DNA: GCGCAGAATACCAGCATCGTCTTGATGCCCTTGGAAGTCTGTCCTGGATTCGCGGAAACGCGTACATCCAGCTGACGAGTCCCAAATAGGACGAAACGCGC | 0.9 |
| RA349 (nucleic acid, expressed or natural sequence) DNA: GCGCGTCCTGGATTCGCGGAAACGCGTACATCCAGCTGACGAGGAGAATACCAGCATCGTCTTGATGCCCTTGGAAGTCTCTCCCAAATAGGACGAAACGCGC | 0.9 |
| RA347 (nucleic acid, expressed or natural sequence) DNA: GCGCGTCCTGGATTCGCGGAAACGCAGAATACCAGCATCGTCTTGATGCCCTTGGAAGTCTGTACATCCAGCTGACGAGTCCCAAATAGGACGAAACGCGC | 0.9 |
| RA333 (nucleic acid, expressed or natural sequence) DNA: GCGCGTCCTGGATTCGCGGAAACGCGTACATCCAGCTGACGAGTCCCAAAGAATACCAGCATCGTCTTGATGCCCTTGGAAGTCTATAGGACGAAACGCGC | 0.9 |
| RA331 (nucleic acid, expressed or natural sequence) DNA: GCGCGTCCTGGGAATACCAGCATCGTCTTGATGCCCTTGGAAGTCCGATTCGCGGAAACGCGTACATCCAGCTGACGAGTCCCAAATAGGACGAAACGCGC | 0.9 |
| RA351 (nucleic acid, expressed or natural sequence) DNA: GCGCGTCCTGGATTCGCGGAAACGCGTACATCCAGCGAGAATACCAGCATCGTCTTGATGCCCTTGGAAGTCTCTGACGAGTCCCAAATAGGACGAAACGCGC | 0.9 |
| RA332 (nucleic acid, expressed or natural sequence) DNA: GCGCGTCCTGGATTCGCGGAAACGCGTACATCCAGCTGACGAGTCGGAATACCAGCATCGTCTTGATGCCCTTGGAAGTCCCCAAATAGGACGAAACGCGC | 0.9 |
| RA336 (nucleic acid, expressed or natural sequence) DNA: GCGCGTCCTGGATTCGCGGAAAGTGATACCAGCATCGTCTTGATGCCCTTGGCAGCACTACGCGTACATCCAGCTGACGAGTCCCAAATAGGACGAAACGCGC | 0.9 |
| RA335 (nucleic acid, expressed or natural sequence) DNA: GCGCGTCCTGGATTCGCGGAAACGCGTAGGAATACCAGCATCGTCTTGATGCCCTTGGAAGTCCCATCCAGCTGACGAGTCCCAAATAGGACGAAACGCGC | 0.9 |
| RA354 (nucleic acid, expressed or natural sequence) DNA: GCGCGTCCTGGATTCGCGGAAACGCGTACATCCAGCTGACGAGTCCCAAATAGGAGTGATACCAGCATCGTCTTGATGCCCTTGGCAGCACTACGAAACGCGC | 0.9 |
| RA340 (nucleic acid, expressed or natural sequence) DNA: GCGCAGTGATACCAGCATCGTCTTGATGCCCTTGGCAGCACTGTCCTGGATTCGCGGAAACGCGTACATCCAGCTGACGAGTCCCAAATAGGACGAAACGCGC | 0.9 |
| RA339 (nucleic acid, expressed or natural sequence) DNA: GCGCGTCCTGGATTGGAATACCAGCATCGTCTTGATGCCCTTGGAAGTCCCGCGGAAACGCGTACATCCAGCTGACGAGTCCCAAATAGGACGAAACGCGC | 0.9 |
| RA342 (nucleic acid, expressed or natural sequence) DNA: GCGCGTCCTGGATTCGCGGAAACGCGTACGGAATACCAGCATCGTCTTGATGCCCTTGGAAGTCCGCATCCAGCTGACGAGTCCCAAATAGGACGAAACGCGC | 0.9 |
| RA343 (nucleic acid, expressed or natural sequence) DNA: GCGCGTCCGGAATACCAGCATCGTCTTGATGCCCTTGGAAGTCCGCTGGATTCGCGGAAACGCGTACATCCAGCTGACGAGTCCCAAATAGGACGAAACGCGC | 0.9 |
| RA334 (nucleic acid, expressed or natural sequence) DNA: GCGCGTCCTGGATTCGCGGAAACGCGTACCCGGAATACCAGCATCGTCTTGATGCCCTTGGAAGTCCGGATCCAGCTGACGAGTCCCAAATAGGACGAAACGCGC | 0.9 |
| RA345 (nucleic acid, expressed or natural sequence) DNA: GCGCGTCCTGGATTCGCGGAAACGCGTACATCCAGCTGACGAGTCCCAAATAGGACGAAACGCGAGAATACCAGCATCGTCTTGATGCCCTTGGAAGTCTC | 0.9 |
| RA337 (nucleic acid, expressed or natural sequence) DNA: GCGCGTAGAATACCAGCATCGTCTTGATGCCCTTGGAAGTCTCCTGGATTCGCGGAAACGCGTACATCCAGCTGACGAGTCCCAAATAGGACGAAACGCGC | 0.9 |
| RA344 (nucleic acid, expressed or natural sequence) DNA: GCGCGTCCTGGATTCGCGGAAACCCGGAATACCAGCATCGTCTTGATGCCCTTGGAAGTCCGGGCGTACATCCAGCTGACGAGTCCCAAATAGGACGAAACGCGC | 0.9 |
| RA330 (nucleic acid, expressed or natural sequence) DNA: GCGCGTCCTGGGAGAATACCAGCATCGTCTTGATGCCCTTGGAAGTCTCATTCGCGGAAACGCGTACATCCAGCTGACGAGTCCCAAATAGGACGAAACGCGC | 0.9 |
| RA348 (nucleic acid, expressed or natural sequence) DNA: GCGCGTCCTGGATTCGCGGAAACGCGTACATCCAGCTGACGACGAGAATACCAGCATCGTCTTGATGCCCTTGGAAGTCTCGGTCCCAAATAGGACGAAACGCGC | 0.9 |
| RA355 (nucleic acid, expressed or natural sequence) DNA: GCGCGTCCTGGATTCGCGGAAACGCGTACATCGAGAATACCAGCATCGTCTTGATGCCCTTGGAAGTCTCCAGCTGACGAGTCCCAAATAGGACGAAACGCGC | 0.9 |
| RA338 (nucleic acid, expressed or natural sequence) DNA: GCGCGTCCTGGATTCGCGGAAACGAGAATACCAGCATCGTCTTGATGCCCTTGGAAGTCTCGCGCGTACATCCAGCTGACGAGTCCCAAATAGGACGAAACGCGC | 0.9 |
| RA352 (nucleic acid, expressed or natural sequence) DNA: GCGCGTCCTGGATTCGCGGAAACGCGTACATCCAGCTGACGAGTCCCAAATAGGACGAAACGCGCGAGAATACCAGCATCGTCTTGATGCCCTTGGAAGTCTCGC | 0.9 |
| RA346 (nucleic acid, expressed or natural sequence) DNA: GCGCGTCCTGGATTCGCGGAAACGCGTACATCCAGCTGGAATACCAGCATCGTCTTGATGCCCTTGGAAGTCCGACGAGTCCCAAATAGGACGAAACGCGC | 0.9 |

same assay, conditions: un-cleaved Renilla luciferase RNA, HEK293-T cells cultured with 1 mM theophylline (ON) over without theophylline (OFF); barcode read counts, triplicate

| Molecule | Fold change in RNA expression between the ON state and the OFF state |
| --- | --- |
| RA034 (nucleic acid, expressed or natural sequence) DNA: GCGCGTCCTGGATTCGCGGAAACGCGTACATCCAGCTGACGAGAGAATACCAGCATCGTCTTGATGCCCTTGGAAGTCTCGTCCCAAATAGGACGAAACGCGC | 2.3 fold |
| RA032 (nucleic acid, expressed or natural sequence) DNA: GCGCGTCCTGGATTCGCGGAAAAGTGATACCAGCATCGTCTTGATGCCCTTGGCAGCACTCGCGTACATCCAGCTGACGAGTCCCAAATAGGACGAAACGCGC | 2.3 fold |
| RA033 (nucleic acid, expressed or natural sequence) DNA: GCGCGTCCTGGATTCGCGGAAACGCGTACATCCAGCTGACGAGTCCCAAATCCGGAATACCAGCATCGTCTTGATGCCCTTGGAAGTCCGGAGGACGAAACGCGC | 2.3 fold |
